Values of other authors, collected in article PMC3905167.

Assays:
Assay in all cases: given as Ka
FcγRI (Homo sapiens) = FcγRI (Homo sapiens) (UniProt P12314)
[1] = target: FcγRIIIa (F158) (Homo sapiens) (UniProt P08637)
[2] = target: FcγRIIIa (V158) (Homo sapiens) (UniProt P08637)
[3] = target: FcγRIIa (H131) (Homo sapiens) (UniProt P12318)
[4] = target: FcγRIIa (R131) (Homo sapiens) (UniProt P12318)
FcγRIIa (R131) (Homo sapiens), sequence (P12318 34-317): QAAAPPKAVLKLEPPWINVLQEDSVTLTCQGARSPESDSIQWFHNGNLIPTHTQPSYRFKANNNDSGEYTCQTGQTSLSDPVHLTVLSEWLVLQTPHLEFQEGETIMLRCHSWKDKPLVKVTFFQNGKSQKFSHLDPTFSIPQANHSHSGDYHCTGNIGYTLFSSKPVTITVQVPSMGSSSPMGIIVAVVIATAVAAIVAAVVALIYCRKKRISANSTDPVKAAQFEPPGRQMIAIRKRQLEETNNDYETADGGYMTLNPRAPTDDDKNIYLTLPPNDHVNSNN

IgG4, sequence (P01861 whole entry): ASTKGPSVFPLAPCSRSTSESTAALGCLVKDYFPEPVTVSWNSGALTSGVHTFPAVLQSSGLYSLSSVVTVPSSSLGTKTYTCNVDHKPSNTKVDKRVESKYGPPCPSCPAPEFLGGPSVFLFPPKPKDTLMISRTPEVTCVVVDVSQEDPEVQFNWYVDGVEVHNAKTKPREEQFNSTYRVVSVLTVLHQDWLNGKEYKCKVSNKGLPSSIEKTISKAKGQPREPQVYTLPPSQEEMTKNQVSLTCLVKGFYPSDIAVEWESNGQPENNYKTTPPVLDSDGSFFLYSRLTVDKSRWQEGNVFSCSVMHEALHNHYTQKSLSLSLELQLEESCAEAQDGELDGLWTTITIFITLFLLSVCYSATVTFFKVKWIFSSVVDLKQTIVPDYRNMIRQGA
FcγRIIIa (F158) (Homo sapiens), sequence (P08637 17-254): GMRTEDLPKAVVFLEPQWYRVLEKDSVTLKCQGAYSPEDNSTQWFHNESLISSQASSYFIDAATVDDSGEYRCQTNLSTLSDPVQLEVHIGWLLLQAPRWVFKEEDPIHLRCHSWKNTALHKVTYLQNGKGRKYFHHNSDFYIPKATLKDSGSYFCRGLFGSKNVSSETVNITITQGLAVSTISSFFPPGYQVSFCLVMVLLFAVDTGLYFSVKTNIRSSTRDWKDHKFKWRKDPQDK
FcγRIIIa (V158) (Homo sapiens), sequence (P08637 17-254): as above
FcγRI (Homo sapiens), sequence (P12314 16-374): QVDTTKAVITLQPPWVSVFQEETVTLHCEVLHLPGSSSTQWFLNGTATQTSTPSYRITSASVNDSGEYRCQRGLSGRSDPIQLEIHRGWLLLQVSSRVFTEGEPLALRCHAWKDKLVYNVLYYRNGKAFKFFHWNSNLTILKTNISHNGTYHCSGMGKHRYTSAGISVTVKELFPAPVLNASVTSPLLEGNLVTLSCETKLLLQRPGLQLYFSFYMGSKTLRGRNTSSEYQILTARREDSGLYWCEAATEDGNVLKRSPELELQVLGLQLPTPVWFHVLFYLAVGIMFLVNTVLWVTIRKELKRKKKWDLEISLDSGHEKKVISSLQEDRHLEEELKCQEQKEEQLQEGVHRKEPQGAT
FcγRIIa (H131) (Homo sapiens), sequence (P12318 34-317): as the sequence (P12318 34-317) above

Substance	Kd (FcγRI (Homo sapiens))	Kd [1]	Kd [2]	Kd [3]	Kd [4]
IgG1 (from UniProt P01857)	15.4 nM	855 nM	500 nM	0.192 µM	286 nM
IgG4 (from UniProt P01861)	29.4 nM	5000 nM	4000 nM	5.88 µM	4760 nM
